# Assay results taken from US20200405868A1, “GEL-FORMING POLYPEPTIDES” (priority 2018, published 2020).
# *1 amine or outer side, *2 acyl side, *3 side chain or, on linkers, in order; H or OH if unused. Where no end group is shown, it is not given here. The star is where a group is joined. FITC = O=C1OC2(c3ccc(O)cc3Oc3cc(O)ccc32)c2ccc(NC(=S)*)cc21; K(Pal) = CCCCCCCCCCCCCCCC(=O)NCCCC[C@H](N[*:1])C(=O)[*:2]; Palmitoyl = CCCCCCCCCCCCCCCC(=O)*
# Test: Compound gel-forming ability in water (visual inspection, tube tapping assay, tilted tube assay);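 also: peptides mixed with de-ionized water at about 22-25 °C, judged after 20 min by eye plus tube tapping (10 taps, moves counted) and 90° tilt mobility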
# Format: physicochemical
# Details: for gel formation at 11% w/w: 11% w/w in water; for gel formation in aqueous solution, 11% / gel formation in aqueous solution, 20% / gel formation in aqueous solution, 6%: Table 3; for gel formation in aqueous solution, 11% / propensity to form gels, chimeric or mutated polypeptides, 11% / propensity to form gels, wild-type counterparts, 11%: 11% w/w; for gel formation at 20% w/w: 20% w/w in water; for Physical property at 11% w/w: 11% w/w in aqueous solution, room temperature; for gel formation in aqueous solution, 6% / propensity to form gels, chimeric or mutated polypeptides, 6% / propensity to form gels, wild-type counterparts, 6%: 6% w/w; for gel formation at 6% w/w: 6% w/w in water
substance,measurement,setting,value
HSDAVFTDNYTRLRKQ-Nle-AVKKYLNSILN-(Pal-K)-SY-NH2 [SEQ ID NO:266],gel formation at 11% w/w,,semisolid gel
same,"gel formation in aqueous solution, 11%",,SS (SS for semisolid gel)
same,"propensity to form gels, chimeric or mutated polypeptides, 11%",Table 5,SS (An ability to form semisolid gel is represented by an SS)
"EAYKAAEKAYAAKEAAKEAAKAKAEKKAAYAKAKAAKYEKKAKKAAAEYKKK [SEQ ID NO:42, reference compound]",gel formation at 11% w/w,,does not form gel
same,gel formation at 20% w/w,,does not form gel
same,Physical property at 11% w/w,Table 1,AS/IS
same,"gel formation in aqueous solution, 11%",,AS/IS (AS/IS for aqueous solution or insoluble)
same,"gel formation in aqueous solution, 20%",20% w/w,AS/IS (AS/IS for aqueous solution or insoluble)
same,"propensity to form gels, wild-type counterparts, 11%",Table 5,AS/IS
same,"propensity to form gels, wild-type counterparts, 20%","Table 5, 20% w/w",AS/IS
Pal-HSYH-(D-Phe)-RWGKPV-NH2 [SEQ ID NO:273],"gel formation in aqueous solution, 11%",,SS (SS for semisolid gel)
same,"gel formation in aqueous solution, 20%",20% w/w,SS (SS for semisolid gel)
same,"propensity to form gels, chimeric or mutated polypeptides, 11%",Table 5,SS (An ability to form semisolid gel is represented by an SS)
same,"propensity to form gels, chimeric or mutated polypeptides, 20%","Table 5, 20% w/w",SS (An ability to form semisolid gel is represented by an SS)
"RGD-NH2 [SEQ ID NO:44, reference compound]",Physical property at 11% w/w,Table 1,AS/IS
same,"gel formation in aqueous solution, 11%",,AS/IS (AS/IS for aqueous solution or insoluble)
same,"propensity to form gels, wild-type counterparts, 11%",Table 5,AS/IS
Pal-HSYSLDVPIGLLQILLEQARARAAREQATTNARILARVGHC-NH2 [SEQ ID NO:265],gel formation at 20% w/w,,semisolid or liquid gel
same,"gel formation in aqueous solution, 11%",,AS/IS (AS/IS for aqueous solution or insoluble)
same,"propensity to form gels, chimeric or mutated polypeptides, 11%",Table 5,AS/IS
"CSNLSTCVLGKLSQELHKLQTYPRTNTGSGTP-NH2 [SEQ ID NO:28, reference compound]",gel formation at 11% w/w,,does not form gel
same,Physical property at 11% w/w,Table 1,AS/IS
same,"gel formation in aqueous solution, 20%",20% w/w,AS/IS (AS/IS for aqueous solution or insoluble)
same,"propensity to form gels, wild-type counterparts, 11%",Table 5,AS/IS
"IEGPTLRQWLAARA [SEQ ID NO:9, reference compound]",Physical property at 11% w/w,Table 1,SS (SS for semisolid gel)
Pal-SSPHSY-miniPEG-SDAAVDTSSEITTKDLKEKKEVVEEAEN-NH2 ({Palmitoyl-Ser-Ser-Pro-H2N-Ser-Tyr-miniPEG}-SDAAVDTSSEITTKDLKEKKEVVEEAEN-NH2) [SEQ ID NO:239],gel formation at 11% w/w,,does not form gel
same,"gel formation in aqueous solution, 11%",,AS/IS (AS/IS for aqueous solution or insoluble)
Pal-SSPHSY-miniPEG-YIGSR-NH2 [SEQ ID NO:246],gel formation at 11% w/w,,semisolid gel
same,"gel formation in aqueous solution, 6%",,SS (SS for semisolid gel)
same,"gel formation in aqueous solution, 11%",,SS (SS for semisolid gel)
same,"propensity to form gels, chimeric or mutated polypeptides, 6%",Table 5,SS (An ability to form semisolid gel is represented by an SS)
same,"propensity to form gels, chimeric or mutated polypeptides, 11%",Table 5,SS (An ability to form semisolid gel is represented by an SS)
"Ace-RADARADARADARADA-NH2 [SEQ ID NO:142, reference compound]",Physical property at 11% w/w,Table 2,SS (SS for semisolid gel)
Pal-HSDAAVDTSSEITTKDLKEKKEVVEEAEN-NH2 [SEQ ID NO:267],gel formation at 11% w/w,,semisolid gel
same,"gel formation in aqueous solution, 6%",,SS (SS for semisolid gel)
same,"gel formation in aqueous solution, 11%",,SS (SS for semisolid gel)
same,"propensity to form gels, chimeric or mutated polypeptides, 6%",Table 5,SS (An ability to form semisolid gel is represented by an SS)
same,"propensity to form gels, chimeric or mutated polypeptides, 11%",Table 5,SS (An ability to form semisolid gel is represented by an SS)
"(G1p)HWSY-(D-2Nal)-LRPG-NH2 [SEQ ID NO:15, reference compound]",gel formation at 11% w/w,,liquid gel
same,"gel formation in aqueous solution, 6%",,AS/IS (AS/IS for aqueous solution or insoluble)
same,"propensity to form gels, wild-type counterparts, 6%",Table 5,AS/IS
Pal-HSYVMGHFRWDRF-NH2 [SEQ ID NO:260],gel formation at 6% w/w,,liquid gel
(Lauric acid)-SSPHSY-NH2 [SEQ ID NO:122],Physical property at 11% w/w,Table 2,SS (SS for semisolid gel)
FITC-K(Pal)SSPHSY-miniPEG-GRKKRRQRRRPQ ({FITC-K(Pal)-Ser-Ser-Pro-H2N-Ser-Tyr-miniPEG}-GRKKRRQRRRPQ) [SEQ ID NO:241],gel formation at 11% w/w,,liquid gel
Pal-VQKLPHSY-NH2 (Palmitoyl-VQKLPHSY-NH2; SMILES CCCCCCCCCCCCCCCC(=O)N[C@H](C(=O)N[C@@H](CCC(N)=O)C(=O)N[C@@H](CCCCN)C(=O)N[C@@H](CC(C)C)C(=O)N1CCC[C@H]1C(=O)N[C@@H](Cc1c[nH]cn1)C(=O)N[C@@H](CO)C(=O)N[C@@H](Cc1ccc(O)cc1)C(N)=O)C(C)C) [SEQ ID NO:117],Physical property at 11% w/w,Table 2,SS (SS for semisolid gel)
Pal-QKLAHQIYQFTDKDVAPRSKISPQGY-NH2 (Palmitoyl-QKLAHQIYQFTDKDVAPRSKISPQGY-NH2; SMILES CCCCCCCCCCCCCCCC(=O)N[C@@H](CCC(N)=O)C(=O)N[C@@H](CCCCN)C(=O)N[C@@H](CC(C)C)C(=O)N[C@@H](C)C(=O)N[C@@H](Cc1c[nH]cn1)C(=O)N[C@@H](CCC(N)=O)C(=O)N[C@H](C(=O)N[C@@H](Cc1ccc(O)cc1)C(=O)N[C@@H](CCC(N)=O)C(=O)N[C@@H](Cc1ccccc1)C(=O)N[C@H](C(=O)N[C@@H](CC(=O)O)C(=O)N[C@@H](CCCCN)C(=O)N[C@@H](CC(=O)O)C(=O)N[C@H](C(=O)N[C@@H](C)C(=O)N1CCC[C@H]1C(=O)N[C@@H](CCCNC(=N)N)C(=O)N[C@@H](CO)C(=O)N[C@@H](CCCCN)C(=O)N[C@H](C(=O)N[C@@H](CO)C(=O)N1CCC[C@H]1C(=O)N[C@@H](CCC(N)=O)C(=O)NCC(=O)N[C@@H](Cc1ccc(O)cc1)C(N)=O)[C@@H](C)CC)C(C)C)[C@@H](C)O)[C@@H](C)CC) [SEQ ID NO:103],Physical property at 11% w/w,Table 2,AS/IS (AS/IS for aqueous solution or insoluble)
"Y-(D-Ala)-GF(D-Leu)-NH2 [SEQ ID NO:22, reference compound]",gel formation at 6% w/w,,do not form gels
same,gel formation at 11% w/w,,do not form gels
same,Physical property at 11% w/w,Table 1,AS/IS
same,"gel formation in aqueous solution, 6%",,AS/IS (AS/IS for aqueous solution or insoluble)
same,"gel formation in aqueous solution, 11%",,AS/IS (AS/IS for aqueous solution or insoluble)
same,"propensity to form gels, wild-type counterparts, 6%",Table 5,AS/IS
same,"propensity to form gels, wild-type counterparts, 11%",Table 5,AS/IS
"Y-(D-Met)-FHLMD-NH2 [SEQ ID NO:21, reference compound]",gel formation at 6% w/w,,do not form gels
same,gel formation at 11% w/w,,do not form gels
same,Physical property at 11% w/w,Table 1,AS/IS
same,"gel formation in aqueous solution, 6%",,AS/IS (AS/IS for aqueous solution or insoluble)
same,"gel formation in aqueous solution, 11%",,AS/IS (AS/IS for aqueous solution or insoluble)
same,"propensity to form gels, wild-type counterparts, 6%",Table 5,AS/IS
same,"propensity to form gels, wild-type counterparts, 11%",Table 5,AS/IS
